According to patent US20220267469A1 (LIPUM, published 2022):

T1: Human BSSL (bile salt-stimulated lipase), native (human, UniProt P19835 21-753)
T1 construct: Native full-length protein purified from human milk (Astra Hässle AB); also called hBSSL; non-biotinylated human BSSL
T1 sequence: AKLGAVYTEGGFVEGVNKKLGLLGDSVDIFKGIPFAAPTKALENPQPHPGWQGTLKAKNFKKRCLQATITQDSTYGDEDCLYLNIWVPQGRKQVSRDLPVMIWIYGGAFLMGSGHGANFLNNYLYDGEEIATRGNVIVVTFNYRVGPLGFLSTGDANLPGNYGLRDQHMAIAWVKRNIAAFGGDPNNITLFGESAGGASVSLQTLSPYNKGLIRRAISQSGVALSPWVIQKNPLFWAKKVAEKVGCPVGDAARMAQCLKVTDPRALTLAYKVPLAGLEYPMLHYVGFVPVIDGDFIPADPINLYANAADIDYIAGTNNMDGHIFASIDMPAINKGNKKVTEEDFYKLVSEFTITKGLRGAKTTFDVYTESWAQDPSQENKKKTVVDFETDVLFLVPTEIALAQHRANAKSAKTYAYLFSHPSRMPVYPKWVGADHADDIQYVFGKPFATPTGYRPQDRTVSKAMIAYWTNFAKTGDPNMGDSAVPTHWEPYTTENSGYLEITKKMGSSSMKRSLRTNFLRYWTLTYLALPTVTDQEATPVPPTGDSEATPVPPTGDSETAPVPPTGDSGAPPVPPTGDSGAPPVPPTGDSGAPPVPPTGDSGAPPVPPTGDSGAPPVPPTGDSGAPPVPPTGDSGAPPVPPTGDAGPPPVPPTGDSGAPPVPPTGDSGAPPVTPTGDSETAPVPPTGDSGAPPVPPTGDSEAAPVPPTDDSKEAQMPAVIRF

T2: Mouse BSSL, recombinant (mouse, UniProt Q64285 21-599)
T2 construct: Bought (R&D Systems, Cat. no 5658-CE); also called mBSSL; murine BSSL
T2 sequence: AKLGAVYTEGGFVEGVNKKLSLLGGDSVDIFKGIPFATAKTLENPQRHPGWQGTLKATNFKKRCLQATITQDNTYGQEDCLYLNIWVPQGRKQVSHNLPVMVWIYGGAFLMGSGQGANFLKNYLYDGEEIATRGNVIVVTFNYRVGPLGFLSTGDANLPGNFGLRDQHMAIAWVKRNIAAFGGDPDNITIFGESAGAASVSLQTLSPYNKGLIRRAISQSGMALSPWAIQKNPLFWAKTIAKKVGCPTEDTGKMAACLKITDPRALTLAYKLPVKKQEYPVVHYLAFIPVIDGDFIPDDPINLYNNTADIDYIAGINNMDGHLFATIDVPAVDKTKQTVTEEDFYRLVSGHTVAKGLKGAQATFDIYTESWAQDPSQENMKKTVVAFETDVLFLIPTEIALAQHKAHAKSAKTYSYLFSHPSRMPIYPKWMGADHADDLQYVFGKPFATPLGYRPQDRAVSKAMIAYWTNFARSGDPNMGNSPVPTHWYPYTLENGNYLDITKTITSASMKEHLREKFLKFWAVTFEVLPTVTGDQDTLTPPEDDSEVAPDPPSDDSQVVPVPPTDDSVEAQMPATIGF

T3: Biotinylated human BSSL (human, UniProt P19835 21-753, Biotinylated on glycosacarides, 30-40 biotin/BSSL)
T3 construct: hBSSL biotinylated in house; also called b-hBSSL; human BSSL-biotin
T3 sequence: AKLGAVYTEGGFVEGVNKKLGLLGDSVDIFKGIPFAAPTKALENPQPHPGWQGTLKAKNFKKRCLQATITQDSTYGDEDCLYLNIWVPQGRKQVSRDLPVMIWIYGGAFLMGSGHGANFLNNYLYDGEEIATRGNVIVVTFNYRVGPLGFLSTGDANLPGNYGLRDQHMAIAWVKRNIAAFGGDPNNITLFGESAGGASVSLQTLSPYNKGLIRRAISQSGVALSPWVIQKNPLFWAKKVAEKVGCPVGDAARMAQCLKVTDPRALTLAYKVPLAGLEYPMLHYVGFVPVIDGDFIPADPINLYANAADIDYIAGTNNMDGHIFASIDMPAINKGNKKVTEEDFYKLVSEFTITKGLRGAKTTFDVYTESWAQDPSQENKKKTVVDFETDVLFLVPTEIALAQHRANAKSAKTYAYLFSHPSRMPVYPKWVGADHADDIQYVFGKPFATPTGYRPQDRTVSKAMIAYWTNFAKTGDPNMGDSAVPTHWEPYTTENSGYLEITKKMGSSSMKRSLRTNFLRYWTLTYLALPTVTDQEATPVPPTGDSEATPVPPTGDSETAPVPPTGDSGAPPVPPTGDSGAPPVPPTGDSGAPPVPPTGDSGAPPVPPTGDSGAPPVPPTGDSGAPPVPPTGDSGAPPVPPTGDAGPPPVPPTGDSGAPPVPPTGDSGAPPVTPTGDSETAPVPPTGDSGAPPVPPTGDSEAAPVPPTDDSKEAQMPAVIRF

B1: AS20 scFv (scFv, V domains shown)
VH: QVQLQQPGAELVKPGASVKMSCKASGYTFTSYNMHWVKQTPGQGLEWIGVIYPGNGDTSYNQKFKGKATLTADKSSSTAYMQLSSLTSEDSAVYYCARDYYGSSPLGYWGQGTTLTVSS
VL: QIVLTQSPAVMSASPGEKVTMTCSASSSISYMHWYQQKPGTSPKRWIYDTSKLASGVPARFSGSGSGTSYSLTISSMEAEDAATYYCHQRSSYPTFGGGTKLEIK
B2: AS20 mouse IgG1 (antibody, V domains shown)
VH: QVQLQQPGAELVKPGASVKMSCKASGYTFTSYNMHWVKQTPGQGLEWIGVIYPGNGDTSYNQKFKGKATLTADKSSSTAYMQLSSLTSEDSAVYYCARDYYGSSPLGYWGQGTTLTVSS
VL: QIVLTQSPAVMSASPGEKVTMTCSASSSISYMHWYQQKPGTSPKRWIYDTSKLASGVPARFSGSGSGTSYSLTISSMEAEDAATYYCHQRSSYPTFGGGTKLEIK
notes: also called AS20 mlgG1; AS20 mIgG1

How the values were obtained:
[1] = molecular target: T1, Human BSSL (bile salt-stimulated …); assay: ELISA, hBSSL directly coated at 1 µg/ml, detection HRP anti-FLAG M2, A450
Mouse BSSL, recombinant [2] = molecular target: T2, Mouse BSSL, recombinant; assay: HTRF competition
[3] = molecular target: T1, Human BSSL (bile salt-stimulated …); assay: SPR single cycle kinetics, scFv captured by anti-FLAG M2
[4] = molecular target: T1, Human BSSL (bile salt-stimulated …); assay: SPR kinetic screen, single concentration (estimated)
Biotinylated human BSSL [5] = molecular target: T3, Biotinylated human BSSL; assay: flow cytometry displacement assay; 1.5 ug antibody, 1 ug b-hBSSL
Procedure, shortened: (§1)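 Antibody (0.5–3.0 μg per reaction) preincubated with 1 μg biotinylated human BSSL in PBS pH 7.4, 30 min at 4 °C, then with human buffy coat 30 min at 4 °C. After erythrocyte lysis/fixation, bound BSSL on CD14+ monocytes detected by labelled streptavidin via flow cytometry.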

Biotinylated human BSSL [6] = molecular target: T3, Biotinylated human BSSL; assay: flow cytometry displacement assay; 3.0 ug antibody, 1 ug b-hBSSL
Procedure, shortened: as §1

[7] = molecular target: T1, Human BSSL (bile salt-stimulated …); assay: SPR single cycle kinetics, antibody immobilised, first set of experiments
Procedure: (§2) SPR measurements were performed with a BIACORE® T200 instrument (GE Healthcare). In order to minimize avidity effects, the antibody was immobilized on the sensor surface and BSSL was injected as the analyte. Immobilization of AS20 mlgG1 was performed by amine coupling to a BIACORE® CM5 (carboxylated dextran surface) sensor chip. The chips were activated by injection of a 1:1 mixture of 0.2 M N-ethyl-N′-[(dimethylamino)peopyl]carbodiimide (EDC) and 0.05 M N-hydroxysucciminimde (NHS) with a contact time of 7 minutes. The antibody was injected for 0.2-2.8 minutes diluted to 14-50 μg/ml in 10 mM acetate-HCl pH 5.0 (set one) or pH 6.0 (set two) to reach final immobilization levels of between 560 and 830 RU. Remaining activated carboxyl groups on the sensor surface were deactivated with an injection of 1 M ethanolamine for 7 minutes.
(§3) In the second set of experiments the running buffer was 25 mM TrisHCl, pH 7.5, 150 mM NaCl. 146 mM H₃PO₄ was used as the standard regeneration solution. The kinetic studies and the non-linear regression analysis were made according to the Single Cycle Kinetics (SCK) method of the BIACORE® T200 instrument and evaluation software. The interaction between mBSSL and AS20 mlgG1 was analyzed with steady state affinity model.

Biotinylated human BSSL [8] = molecular target: T3, Biotinylated human BSSL; assay: flow cytometry displacement assay; 2.0 ug antibody, 1 ug b-hBSSL
Procedure: The 28 BSSL-specific hIgG4 antibodies and the five reference antibodies at different concentrations (ranging from 0.5 μg to 3.0 μg per reaction; see Table 10) were added to b-hBSSL (1 μg per reaction, see Table 2) in round-bottom polystyrene tubes, lx PBS (pH 7.4) was added to a final volume of 20 μl and the antibody/b-hBSSL mixtures were incubated for 30 min. at +4° C. to facilitate binding of antibodies to BSSL. Buffy coat (50 μl) was then added to each antibody/b-hBSSL mixture and incubation continued for another 30 min at +4° C. Thereafter, 2 ml of FACS lysing solution (BD Biosciences) was added and the cells were incubated for 10 min at room temperature in order to lyse erythrocytes and fix the white blood cells. The cells were then centrifuged for 5 min. at 200×g, the resulting pellets were washed by adding 2 ml of FACS buffer (1×PBS supplemented with 1% FCS and 0.1% NaN3) and centrifuged again. Finally, the supernatants were discarded and the cells were resuspended in the last drop of liquid, approximately 50 μl.
5 μl of BV421-labelled anti-human CD14 (BD Biosciences) and 5 μl of BB515-labelled streptavidin (BD Biosciences) was added to each tube and incubated for 30 min, at +4° C., protected from light. Thereafter, cells were washed twice with FACS buffer, resuspended in 500 μl FACS buffer, and run on BD LSRII flow cytometer (BD Biosciences). Finally, data were analyzed using FlowJo software (BD Biosciences).

[9] = molecular target: T1, Human BSSL (bile salt-stimulated …); assay: SPR single cycle kinetics, antibody immobilised, second set of experiments
Procedure: as §2, §3

Mouse BSSL, recombinant [10] = molecular target: T2, Mouse BSSL, recombinant; assay: SPR steady state analysis
Procedure: as §2, §3

Biotinylated human BSSL [11] = molecular target: T3, Biotinylated human BSSL; assay: flow cytometry displacement assay; 1.0 ug antibody, 1 ug b-hBSSL
Procedure, shortened: as §1

Mouse BSSL, recombinant [12] = molecular target: T2, Mouse BSSL, recombinant; assay: SPR steady state analysis, antibody immobilised, second set of experiments
Procedure: as §2, §3

Biotinylated human BSSL [13] = molecular target: T3, Biotinylated human BSSL; assay: flow cytometry displacement assay; 0.5 ug antibody, 1 ug b-hBSSL
Procedure, shortened: as §1

| Binder | EC50 (read off the curve) [1] [µg/mL] | fold lower affinity than for human BSSL (Mouse BSSL, recombinant [2]) [fold] | Kd [3] [nM] | koff [3] [s⁻¹] | kon [3] [M⁻¹ s⁻¹] | Kd [4] [nM] | percentage reduction of b-hBSSL binding to CD14+ monocytes (Biotinylated human BSSL [5]) [%] | percentage reduction of b-hBSSL binding to CD14+ monocytes (Biotinylated human BSSL [6]) [%] | Kd [7] [nM] | koff [7] [s⁻¹] | kon [7] [M⁻¹ s⁻¹] | percentage reduction of b-hBSSL binding to CD14+ monocytes (Biotinylated human BSSL [8]) [%] | Kd [9] [nM] | koff [9] [s⁻¹] | kon [9] [M⁻¹ s⁻¹] | fold weaker affinity than for human BSSL (Mouse BSSL, recombinant [10]) [fold] | percentage reduction of b-hBSSL binding to CD14+ monocytes (Biotinylated human BSSL [11]) [%] | Kd (Mouse BSSL, recombinant [12]) [nM] | percentage reduction of b-hBSSL binding to CD14+ monocytes (Biotinylated human BSSL [13]) [%] |
| --- | --- | --- | --- | --- | --- | --- | --- | --- | --- | --- | --- | --- | --- | --- | --- | --- | --- | --- | --- |
| B1 | ~0.02 | ~100 | 0.6 | 0.00012 | 190000 | 2 |  |  |  |  |  |  |  |  |  |  |  |  |  |
| B2 |  |  |  |  |  |  | 72 | 80 | 2.8 | 0.00027 | 97000 | 74 | 1.1 | 0.00025 | 230000 | ~100 | 66 | 155 | 31 |
